Experiments:
[1] = target: Recombinant TTR variant TTR_S52P; assay: SPR (ProteOn), Amyposomes flowed over immobilised aggregates; concentration as exposed PA; TTR aggregates
[2] = target: Recombinant TTR variant TTR_S52P; assay: cell-based or functional assay
[3] = target: Human Beta-Amyloid (1-40) (human); assay: cell-based or functional assay
[4] = target: Truncated amyloidogenic form of Serum Amyloid A, SAA(1-76) (Homo sapiens (Human)) (UniProt P0DJI8); assay: cell-based or functional assay
[5] = target: Recombinant β2-microglobulin variant β2m_D76N (Pongo pygmaeus (Bornean orangutan)) (UniProt P16213); assay: cell-based or functional assay
[6] = target: Recombinant β2-microglobulin variant β2m_ΔN6 (Pongo pygmaeus (Bornean orangutan)) (UniProt P16213); assay: cell-based or functional assay
[7] = target: Human Beta-Amyloid (1-40) (human); assay: SPR (ProteOn), Amyposomes flowed over immobilised fibrils; concentration as exposed PA; Aβ1-40 fibrils

Sequence of Human Beta-Amyloid (1-40) (human) (peptide, as listed by the source): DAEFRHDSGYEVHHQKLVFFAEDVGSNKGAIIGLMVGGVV
Sequence of UniProt P0DJI8 (P0DJI8 other isoform, or with tags, fused parts or gaps limits assumed): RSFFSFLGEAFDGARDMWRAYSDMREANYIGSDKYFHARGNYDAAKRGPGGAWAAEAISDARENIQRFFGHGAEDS

Amyposomes (liposomes composed of sphingomyelin/cholesterol, functionalized with phosphatidic acid and with mApoE peptide covalently linked to the outer surface)
Kd [1]: 14.2 µM
ThT fluorescence, aggregation with respect to protein alone, TTR:Amyposomes 1:50 [2]: 40%
ThT fluorescence, residual aggregates after 5 h, TTR:Amyposomes 1:50 [2]: 5%
ThT fluorescence, residual aggregates after 24 h, peptide:Amyposomes 1:50 [3]: 40%
ThT fluorescence, residual aggregates after 5 days, peptide:Amyposomes 1:50 [3]: 10%
ThT fluorescence, residual aggregates after 72 h, protein:Amyposomes 1:50 [4]: 30%
ThT fluorescence, final aggregation extent with respect to protein alone, D76N:Amyposomes 1:50 [5]: 36%
ThT fluorescence, residual aggregates after 3 days, protein:Amyposomes 1:30 and 1:50 [5]: 15%
ThT fluorescence, aggregation extent with respect to protein alone, protein:Amyposomes 1:50 [6]: 20%
ThT fluorescence, residual aggregates, protein:Amyposomes 1:50 [6]: 50%
Kd [7]: 0.12 µM

From patent publication US20220313607A1
